Experimental data taken from paper PMC6016249.

Biological target: α1-subunit of steroid C-25 dehydrogenase 1 (S25DH1), recombinant from Thauera aromatica K172 (Sterolibacterium denitrificans)
Assay: co-purification (ion exchange and dye-affinity chromatography, SDS-PAGE); nontagged subunits coproduced in T. aromatica K172; soluble extract, anaerobic DEAE-Sepharose then Reactive Red 120, active fractions followed; SDS-PAGE, bands of S25DH1 identified by ESI-QTOF-MS of tryptic digests

Sequence of α1-subunit of steroid C-25 dehydrogenase 1 (S25DH1), recombinant from Thauera aromatica K172 (Sterolibacterium denitrificans) (main, as listed by the source): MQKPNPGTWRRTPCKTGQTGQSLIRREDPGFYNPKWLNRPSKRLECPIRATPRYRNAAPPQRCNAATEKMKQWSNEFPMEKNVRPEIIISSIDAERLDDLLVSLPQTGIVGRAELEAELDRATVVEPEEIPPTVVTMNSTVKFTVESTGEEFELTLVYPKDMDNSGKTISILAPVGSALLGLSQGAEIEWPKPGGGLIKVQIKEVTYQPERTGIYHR

Q: How did the stoichiometry N turn out when “β3-subunit of steroid C-25 dehydrogenase, recombinant from Thauera aromatica K172 (natural protein)” was run?
A: 1 β3 per α1

Q: With “γ3-subunit of steroid C-25 dehydrogenase, recombinant from Thauera aromatica K172 (natural protein)” as the substance, how does the stoichiometry N read?
A: 1 γ3 per α1
